Earlier results as cited in PMC4747809.
pKd: −log10 of the molar value.

How the values were obtained:
[1] = target: iC3b/C3dg TED (iC3b, C3dg) (Homo sapiens) (UniProt P01024)
[2] = target: iC3b/C3dg iC3b, C3dg (Homo sapiens) (UniProt P01024)
Sequence of iC3b/C3dg iC3b, C3dg (Homo sapiens) (P01024 955-1303): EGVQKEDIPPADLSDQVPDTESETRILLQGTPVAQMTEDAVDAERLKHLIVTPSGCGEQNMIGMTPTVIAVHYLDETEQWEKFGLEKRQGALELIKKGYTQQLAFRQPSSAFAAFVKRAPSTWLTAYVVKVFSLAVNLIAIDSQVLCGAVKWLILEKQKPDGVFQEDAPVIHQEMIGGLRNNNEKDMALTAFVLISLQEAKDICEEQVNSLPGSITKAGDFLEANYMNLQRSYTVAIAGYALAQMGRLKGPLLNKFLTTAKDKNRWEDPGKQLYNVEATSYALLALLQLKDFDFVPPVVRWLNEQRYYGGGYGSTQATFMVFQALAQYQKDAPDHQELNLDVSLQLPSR

Sequence of Complement receptor 2 (CR2) domains 1-4 (P20023 21-273): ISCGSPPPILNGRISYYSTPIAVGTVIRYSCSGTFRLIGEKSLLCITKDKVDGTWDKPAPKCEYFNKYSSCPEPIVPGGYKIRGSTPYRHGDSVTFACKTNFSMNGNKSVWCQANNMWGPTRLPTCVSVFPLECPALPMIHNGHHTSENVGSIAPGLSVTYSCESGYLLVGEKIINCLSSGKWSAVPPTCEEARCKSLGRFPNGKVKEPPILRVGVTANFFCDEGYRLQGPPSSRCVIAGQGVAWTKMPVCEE
Sequence of Factor H (FH) domains 19-20 (P08603 1107-1231): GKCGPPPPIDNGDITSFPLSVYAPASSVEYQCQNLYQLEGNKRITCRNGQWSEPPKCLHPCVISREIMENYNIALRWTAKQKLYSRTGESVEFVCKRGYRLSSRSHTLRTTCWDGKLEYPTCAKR
Sequence of iC3b/C3dg TED (iC3b, C3dg) (Homo sapiens) (P01024 955-1303): as the sequence (P01024 955-1303) above

Substance	pKd [1]	pKd [2]
Complement receptor 2 (CR2) domains 1-4 (from UniProt P20023)	6.30	–
Factor H (FH) domains 19-20 (from UniProt P08603)	–	5.30
